Measurements reported in article doi:10.1101/285569.

Tests used:
[1] = molecular target: Bruno (UniProt O02374 1-604); test: EMSA
[2] = molecular target: T1, Pumilio RNA-binding domain (UniProt P25822 1091-1426); test: EMSA
T1 sequence: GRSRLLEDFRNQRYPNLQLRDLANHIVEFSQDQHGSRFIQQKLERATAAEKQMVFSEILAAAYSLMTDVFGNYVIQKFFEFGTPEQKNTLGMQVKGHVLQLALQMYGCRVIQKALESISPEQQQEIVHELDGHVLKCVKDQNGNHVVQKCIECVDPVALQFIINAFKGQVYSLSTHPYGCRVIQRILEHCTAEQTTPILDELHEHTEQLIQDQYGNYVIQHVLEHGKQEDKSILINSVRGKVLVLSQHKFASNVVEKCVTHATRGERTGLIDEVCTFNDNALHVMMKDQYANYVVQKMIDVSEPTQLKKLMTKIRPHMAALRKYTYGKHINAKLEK

UAAUCAAGAUACAUAUAUGC (ssRNA) [Scramble RNA]
binding result [1]: no binding | binding result [2]: no binding
